Reference: paper PMC3124419, “Elucidating the domain architecture and functions of non-core RAG1: The capacity of a non-core zinc-binding domain to function in nuclear import and nucleic acid binding” (BMC Biochemistry, 2011)
Numbering of substitutions follows the chain as printed.

Tests used:
[1] = molecular target: T1, MBP-CND (RAG1 central non-core domain) (murine, UniProt P15919 87-217); experiment: competition; 1.5 uM MBP-CND, 1 nM labeled WT 12-RSS; EMSA: 10 mM Tris pH 8.0, 5 mM MgCl2, 2 mM DTT, 6% glycerol, 100 mM NaCl, 25 C, 1 nM 32P-DNA; 3.5/8% discontinuous nondenaturing gel; settings: protein: recombinant; tags: N-terminal MBP; blunt
T1 sequence: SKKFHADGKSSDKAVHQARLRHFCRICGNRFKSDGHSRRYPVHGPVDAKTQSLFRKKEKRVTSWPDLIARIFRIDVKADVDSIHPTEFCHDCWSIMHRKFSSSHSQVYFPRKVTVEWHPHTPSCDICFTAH

[2] = molecular target: T2, MBP-bZDD (murine, UniProt P15919 218-380); experiment: EMSA; 5 mM Mg2+; EMSA: 10 mM Tris pH 8.0, 5 mM MgCl2, 2 mM DTT, 6% glycerol, 100 mM NaCl, 25 C, 1 nM 32P-DNA; 3.5/8% discontinuous nondenaturing gel; settings: protein: recombinant; tags: N-terminal MBP; chain copies: 2; blunt
T2 sequence: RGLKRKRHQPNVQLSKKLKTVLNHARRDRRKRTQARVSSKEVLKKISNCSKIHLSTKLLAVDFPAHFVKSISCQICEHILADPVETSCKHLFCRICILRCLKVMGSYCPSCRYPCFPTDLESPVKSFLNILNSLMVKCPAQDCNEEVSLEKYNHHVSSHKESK

[3] = molecular target: T1, MBP-CND (RAG1 central non-core domain); experiment: EMSA; 5 mM Mg2+; range covers EMSA and anisotropy; EMSA: 10 mM Tris pH 8.0, 5 mM MgCl2, 2 mM DTT, 6% glycerol, 100 mM NaCl, 25 C, 1 nM 32P-DNA; 3.5/8% discontinuous nondenaturing gel; settings: protein: recombinant; tags: N-terminal MBP; blunt
[4] = molecular target: T1, MBP-CND (RAG1 central non-core domain); experiment: fluorescence anisotropy; range covers EMSA and anisotropy; EMSA: 10 mM Tris pH 8.0, 5 mM MgCl2, 2 mM DTT, 6% glycerol, 100 mM NaCl, 25 C, 1 nM 32P-DNA; 3.5/8% discontinuous nondenaturing gel; settings: protein: recombinant; tags: N-terminal MBP; blunt
[5] = molecular target: T3, MBP-CND+bZDD (murine, UniProt P15919 87-380); experiment: EMSA; 5 mM Mg2+; EMSA: 10 mM Tris pH 8.0, 5 mM MgCl2, 2 mM DTT, 6% glycerol, 100 mM NaCl, 25 C, 1 nM 32P-DNA; 3.5/8% discontinuous nondenaturing gel; settings: protein: recombinant; tags: N-terminal MBP; chain copies: 2; label: 5' 32P; hairpin, fully complementary
T3 sequence: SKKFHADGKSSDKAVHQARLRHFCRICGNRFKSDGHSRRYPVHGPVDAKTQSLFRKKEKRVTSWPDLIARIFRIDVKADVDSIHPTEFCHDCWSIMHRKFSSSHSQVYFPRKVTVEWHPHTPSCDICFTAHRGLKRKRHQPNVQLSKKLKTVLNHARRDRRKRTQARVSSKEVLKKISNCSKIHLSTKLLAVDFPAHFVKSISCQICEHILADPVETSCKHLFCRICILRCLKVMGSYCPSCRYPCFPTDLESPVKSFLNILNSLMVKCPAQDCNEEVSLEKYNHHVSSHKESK

[6] = molecular target: T1, MBP-CND (RAG1 central non-core domain); experiment: as above; settings: protein: recombinant; tags: N-terminal MBP; label: 5' 32P; hairpin, fully complementary
[7] = molecular target: the molecule itself; experiment: SEC-MALS; MALLS-SEC of MBP fusion proteins, 20 mL Superdex 200, starting concentration 3-10 μM, GFB buffer (20 mM Tris pH 8.0, 0.2 M NaCl, 50 μM ZnCl2, 5 mM βME)

B1: mutant nonamer (MN) 12-RSS (dsDNA)
DNA 1: GATATGGCTCGTCTTACACAGTGATATAGACCTTAAGGCTCTGATCCAATCGAGCGGAG
DNA 2: CTCCGCTCGATTGGATCAGAGCCTTAAGGTCTATATCACTGTGTAAGACGAGCCATATC
B1: binds [1].

B2: WT 12-RSS (dsDNA)
DNA 1: GATATGGCTCGTCTTACACAGTGATATAGACCTTAACAAAAACCTCCAATCGAGCGGAG
DNA 2: CTCCGCTCGATTGGAGGTTTTTGTTAAGGTCTATATCACTGTGTAAGACGAGCCATATC
B2 was tested, and the Kd [2] was roughly 1.73 µM and the Kd [3] was 1.55 µM.

B3: WT 12-RSS, Oregon Green (dsDNA)
DNA 1: B2 DNA 1
DNA 2: B2 DNA 2
With B3 the Kd [4] was 1.55 µM.

B4: mutant heptamer (MH) 12-RSS (dsDNA)
DNA 1: B2 DNA 1 with C17G, C19G, G21A, T22G, G23C
DNA 2: B2 DNA 2 with C37G, A38C, C39T, G41C, G43C
B4: binds [1].

B5: 32 nt hairpin coding flank (structured_DNA)
DNA: GATATGGCTCGTCTTATAAGACGAGCCATATC
B5: binds [5]; binds [6].

B6: MBP-bZDD (domain or fragment, murine, UniProt P15919 218-380, looked up)
chain: T2 sequence
notes: RAG1, murine, residues 218-380 (basic region plus zinc dimerization domain, ZDD 265-380); Four zinc ions per monomer; Predicted dimeric mass 123,634 Da; also called MBP-RAG1(218-380); basic-zinc dimerization domain fused to MBP; source: E. coli BL21, purified (amylose resin, SEC); not shown: MBP, N-terminal, kept
For B6, the “stoichiometry N” value [7] was 2.
